Molecular target: alpha-thrombin (human, UniProt P00734;P00734 328-363;364-622)
Assay: SPR

B1: Tbn#6 (structured_RNA)
RNA: UGAGGUGUUUGGGGUACUACUGGUAAAGGAUUUUCAUCUA
modifications: RNA (U for T); 2'-F C and U, 2'-OH A and G
In the case of B1, the Kd is reported as 1.7 nM.

B2: Tbn#3 (structured_RNA)
RNA: CCUUUGGUUCGGAUAAUUAUUAAGUAUUGUCUUCAUUCA
modifications: RNA (U for T); 2'-F C and U, 2'-OH A and G
With B2 the Kd was 1.4 nM.

Source: article PMC6994090
